Data from patent publication US20240174744A1 (SCIRHOM, published 2024).
Changes are numbered by the printed parent chain.

Target: T1, human iRhom1, endogenously expressed on RH-30 cells (human, UniProt Q96CC6 1-855)
T1 construct: RH-30 cells are described as endogenously negative for iRhom2 but endogenously expressing iRhom1; also called NP_071895.3
T1 sequence: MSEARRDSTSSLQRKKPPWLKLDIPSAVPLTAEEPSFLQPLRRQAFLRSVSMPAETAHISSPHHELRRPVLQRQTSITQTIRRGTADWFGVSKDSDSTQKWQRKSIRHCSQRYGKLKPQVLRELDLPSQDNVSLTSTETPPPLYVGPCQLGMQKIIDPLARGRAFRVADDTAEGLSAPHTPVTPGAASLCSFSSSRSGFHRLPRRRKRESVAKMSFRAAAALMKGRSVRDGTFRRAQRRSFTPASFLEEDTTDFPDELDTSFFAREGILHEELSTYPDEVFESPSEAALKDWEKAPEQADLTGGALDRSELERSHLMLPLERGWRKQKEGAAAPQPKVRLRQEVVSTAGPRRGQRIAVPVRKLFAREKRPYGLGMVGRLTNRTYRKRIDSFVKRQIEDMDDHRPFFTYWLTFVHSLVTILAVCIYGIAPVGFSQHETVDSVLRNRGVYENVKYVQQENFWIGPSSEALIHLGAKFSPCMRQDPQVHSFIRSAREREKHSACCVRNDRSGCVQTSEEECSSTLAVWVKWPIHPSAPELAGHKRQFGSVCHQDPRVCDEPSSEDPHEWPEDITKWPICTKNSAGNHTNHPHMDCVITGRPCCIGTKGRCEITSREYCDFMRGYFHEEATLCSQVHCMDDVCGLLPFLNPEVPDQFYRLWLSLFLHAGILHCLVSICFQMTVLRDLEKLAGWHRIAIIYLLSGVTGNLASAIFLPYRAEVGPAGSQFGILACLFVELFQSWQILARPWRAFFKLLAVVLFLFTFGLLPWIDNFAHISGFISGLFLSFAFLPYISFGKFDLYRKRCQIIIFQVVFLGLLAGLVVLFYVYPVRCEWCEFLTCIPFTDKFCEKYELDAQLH
Test: FACS, RH-30 cells (endogenous iRhom1, no iRhom2)
Description: In brief, human RPMI-8226 cells (Deutsche Sammlung von Mikroorganismen und Zellkulturen, Germany), THP-1 cells (American Type Culture Collection, USA) and RH-30 cells (Deutsche Sammlung von Mikroorganismen und Zellkulturen, Germany) were harvested with 10 mM EDTA in PBS, washed and resuspended in FACS buffer (PBS, 3% FBS, 0.05% sodium azide), and seeded in Nunc U-bottom 96-well plates (Thermo Fisher Scientific, USA) at approximately 2×10⁵ cells per well. In order to pellet cells and remove supernatants, the plates were centrifuged at 1,500 rpm and 4° C. for 3 minutes. For primary staining, cells were resuspended in 100 μl per well of either FACS buffer alone (controls), a 1:60 dilution of the hybridoma supernatant, the primary material leading to the antibodies 3, 16, 22 and 42 of the present disclosure in FACS buffer or 3 μg/ml of the antibodies 16, 22 and 42 of the present disclosure in FACS buffer and incubated on ice for 1 hour. Afterwards, plates were centrifuged at 1,500 rpm and 4° C. for 3 minutes and washed twice with 200 μl per well of FACS buffer. […] Finally, cells were resuspended in 150 μl per well of FACS buffer and analyzed using a BD Accuri™ C6 Plus flow cytometer (Becton Dickinson, Germany).

B1: antibody 22 (antibody, V domains shown)
VH: QVTLKESGPGILQPSQTLSLTCSFSGFSLSTFGMGVGWIRQPSGKGLEWLAHIWWDDEKYYNSALKSRLTISKATSKNQVFLKIANVDTADTATYYCARISNYGSNYWYFNVWGTGTTVTVSS
VL: QVVLTQSPALMSASPGEKVTMTCSAGSSVSYMYWYQQKPGSSPRVLIYDTSNLASGVPARFTGSGSGTSYSLTISRMEAEDAATYYCQQWNSYPLTFGAGTKLELK
notes: Mouse IgG, kappa light chain; also called clone #22; m22
Question: Does B1 bind?
Answer: Result: no binding (tested: 3 µg/ml)

B2: antibody 42 (antibody, V domains shown)
VH: B1 VH with F24L, M34R, S63P, A74D, K83R, S101Q, N111D
VL: LIVLTQSPAIMSASPGEKVTMTCGATSRISYMFWYQQKPGSSPRVLIYDTSNLASGVPVRFSGSGSGTSYSLTISRVEAEDVATYYCQQWNSYPLTFGAGTKLELK
notes: Mouse IgG, kappa light chain; also called clone #42; m42
Question: Does B2 bind?
Answer: Result: no binding (tested: 3 µg/ml)
